The values that follow come from publication PMC4906247 (2016).

Sequences and labels used below:
B1: WT hDAPK2 expressed in HEK293T cells (CaM pull-down from lysate) [human] / calcium/calmodulin on Sepharose 4B (Sepharose 4B-CaM) [not stated] (parent complex)
chain 1: MFQASMRSPNMEPFKQQKVEDFYDIGEELGSGQFAIVKKCREKSTGLEYAAKFIKKRQSRASRRGVSREEIEREVSILRQVLHHNVITLHDVYENRTDVVLILELVSGGELFDFLAQKESLSEEEATSFIKQILDGVNYLHTKKIAHFDLKPENIMLLDKNIPIPHIKLIDFGLAHEIEDGVEFKNIFGTPEFVAPEIVNYEPLGLEADMWSIGVITYILLSGASPFLGDTKQETLANITAVSYDFDEEFFSQTSELAKDFIRKLLVKETRKRLTIQEALRHPWITPVDNQQAMVRRESVVNLENFRKQYVRRRWKLSFSIVSLCNHLTRSLMKKVHLRPDEDLRNCESDTEEDIARRKALHPRRRSSTS
chain 2: not shown

The assay covers variants of B1. The assay can be described thus: CaM pull-down from HEK293T cell lysate, western blot; HEK293T transfected cells; EGTA-mediated elution on Sepharose 4B-CaM; read off a plot. (A western blot detects proteins with antibodies after separation by electrophoresis.)
For chain 1 R57E, chain 1 R60E, chain 1 R63E, chain 1 R64E, chain 1 W315D, the response was ~0.42 relative unit (normalized to W305D). Take chain 1 W315D: the response is ~1 relative unit (normalized to W305D).
